Assay results as given in patent publication US20180016349A1 (Takeda / Millennium, published 2018).

B1: Ab19 (antibody, human IgG1, lambda, V domains shown)
VH: EVQLLESGGGLVQPGGSLRLSCAASGFTFNNYDMTWVRQAPGKGLEWVAVISYDGSDKDYADSVKGRFTISRDNSKNTLYLQMNSLRAEDTAVYYCARVYYYGFSGPSMDVWGQGTLVTVSS
VL: QSVLTQPPSASGTPGQRVTISCSGSNSNIGSNTVNWYQQLPGTAPKLLIYSDSNRPSGVPDRFSGSKSGTSASLAISGLRSEDEADYYCQSYDSSLSGSRVFGGGTKLTVLG
B2: Ab79 (antibody, human IgG1, lambda, V domains shown)
VH: EVQLLESGGGLVQPGGSLRLSCAASGFTFDDYGMSWVRQAPGKGLEWVSDISWNGGKTHYVDSVKGQFTISRDNSKNTLYLQMNSLRAEDTAVYYCARGSLFHDSSGFYFGHWGQGTLVTVSS
VL: QSVLTQPPSASGTPGQRVTISCSGSSSNIGDNYVSWYQQLPGTAPKLLIYRDSQRPSGVPDRFSGSKSGTSASLAISGLRSEDEADYYCQSYDSSLSGSVFGGGTKLTVLG
notes: also called TSF79
B3: Ab43 (antibody, human IgG1, lambda, V domains shown)
VH: EVQLLESGGGLVQPGGSLRLSCAASGFTFSSYGMHWVRQAPGKGLEWVSRINSDGSSTSYADSMKGQFTISRDNSKNTLYLQMNSLRAEDTAVYYCARGGYYYYAMDVWGQGTLVTVSS
VL: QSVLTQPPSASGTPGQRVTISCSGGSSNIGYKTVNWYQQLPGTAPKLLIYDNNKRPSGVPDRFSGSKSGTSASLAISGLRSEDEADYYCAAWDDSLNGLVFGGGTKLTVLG
B4: Ab72 (antibody, human IgG1, lambda, V domains shown)
VH: EVQLLESGGGLVQPGGSLRLSCAASGFTFSSYGMNWVRQAPGKGLEWVSGISGSGGSTYYADSVKGRFTISRDNSKNTLYLQMNSLRAEDTAVYYCAKDSNYDFWSGYYYGMDVWGQGTLVTVSS
VL: QSVLTQPPSASGTPGQRVTISCSGSSSNIGSKTVSWYQQLPGTAPKLLIYDNNKRPSGVPDRFSGSKSGTSASLAISGLRSEDEADYYCSSYAARSTNIIFGGGTKLTVLG
B5: Ab110 (antibody, human IgG1, lambda, V domains shown)
VH: EVQLLESGGGLVQPGGSLRLSCAASGFTFSSYGMHWVRQAPGKGLEWVSIIYSGGSTYYADSVKGRFTISRDNSKNTLYLQMNSLRAEDTAVYYCARRATWGGATHDYWGQGTLVTVSS
VL: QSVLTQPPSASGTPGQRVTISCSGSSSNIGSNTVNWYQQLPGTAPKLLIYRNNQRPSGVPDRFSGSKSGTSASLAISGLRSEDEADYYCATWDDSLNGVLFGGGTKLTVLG

Molecular target: T1, cynomolgus CD38 (cynomolgus (Macaca fascicularis), UniProt Q5VAN0 1-301, limits assumed)
T1 construct: also called cyCD38; cyno CD38
T1 sequence (Q5VAN0 whole entry): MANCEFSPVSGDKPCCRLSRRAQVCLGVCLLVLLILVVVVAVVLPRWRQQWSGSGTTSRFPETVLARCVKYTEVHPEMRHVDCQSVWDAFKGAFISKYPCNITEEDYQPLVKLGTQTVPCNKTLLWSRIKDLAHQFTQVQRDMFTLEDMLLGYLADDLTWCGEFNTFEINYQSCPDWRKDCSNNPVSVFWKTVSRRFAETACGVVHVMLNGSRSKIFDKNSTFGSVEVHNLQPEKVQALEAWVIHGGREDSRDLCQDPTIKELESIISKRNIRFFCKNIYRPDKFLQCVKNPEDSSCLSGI
Experiment: not described at this place (FACS screen on CHO cells expressing cynomolgus CD38 is described in Example 3)

| Binder | binding result |
| --- | --- |
| B1 | binds |
| B2 | binds |

Molecular target: T2, human CD38 on cells (MOLP-8, RPMI-8226, Daudi cell lines, patient cells and tissues) (human, UniProt P28907 1-300)
Experiment: cell-based or functional assay

| Binder | ADCC EC50 nM (DAUDI) [nM] | ADCC EC50 nM (MOLP-8) [nM] | ADCC EC50 nM (RPMI-8226) [nM] | Apoptosis EC50 nM (DAUDI) [nM] | CDC EC50 nM (MOLP-8) [nM] |
| --- | --- | --- | --- | --- | --- |
| B1 | 0.08 | 0.038 | 0.46 | 0.032 | 0.98 |
| B3 | 0.12 | 0.027 | 3.84 | 1.56 | 2.2 |
| B4 | 0.14 | 0.193 | 2.35 | 0.35 | 0.66 |
| B2 | 0.03 | 0.047 | 0.46 | 0.048 | 1.1 |
| B5 | 0.24 | 0.874 | 2.98 | 0.4 | 1.99 |

Molecular target: T2, human CD38 on cells (MOLP-8, RPMI-8226, …)
Experiment: flow cytometry titration on MOLP-8 cells, 4 C, nonlinear fit; 95% confidence interval in parentheses

| Binder | Kd [nM] |
| --- | --- |
| B1 | 0.4 |
| B3 | 1.1 |
| B4 | 0.6 |
| B2 | 1.2 |
| B5 | 1 |

Molecular target: T2, human CD38 on cells (MOLP-8, RPMI-8226, …)
Experiment: flow cytometry (FACS KD) on RPMI-8226 cells

| Binder | Kd [nM] |
| --- | --- |
| B2 | 0.508 |

Molecular target: T3, soluble human CD38 ectodomain (ECD), R&D Systems Cat #2404-AC (human, UniProt P28907 43-300)
T3 construct: Bought ectodomain; also called HuCD38; human recombinant CD38
Experiment: SPR Biacore A100, 22 C, mAb captured by anti-human IgG, soluble human CD38 ECD as analyte, 1:1 fit

| Binder | Kd [nM] | koff [s⁻¹] | kon [M⁻¹ s⁻¹] |
| --- | --- | --- | --- |
| B1 | 5.3 |  |  |
| B3 | 537 | 0.146 | 272000 |
| B4 | 126 | 0.00182 | 14400 |
| B2 | 5.5 |  |  |
| B5 | 1400 | 0.171 | 122000 |
